Reference: publication PMC10375748

Key:
[1] = target: ZZ peptide displayed on the CHO cell surface with the murine B7-1 transmembrane domain (from pEF1α-ZZ-B7); assay: flow cytometry on cells; stable CHO-ZZ cells (2 x 10^5 cells/sample) incubated with an excess of fluorescein-conjugated IgG of Table 2 for 40 min at 4 °C, washed with PBS; percentage of positive cells
[2] = target: ZZ peptide displayed on the CHO cell surface with the human PDGFR transmembrane domain (from pEF1α-ZZ-PDGFR); assay: flow cytometry on cells; CHO cells transiently transfected with the ZZ display plasmid, labelled with hIgG-FITC; percentage of ZZ-positive cells
[3] = target: ZZ peptide displayed on the CHO cell surface with the murine B7-1 transmembrane domain (from pEF1α-ZZ-B7); assay: as above

Row | Substance | percentage of positive cells [1] | percentage of ZZ-positive cells [2] | percentage of ZZ-positive cells [3]
1 | Donkey Anti-Rabbit IgG (H + L)-Cy3 (Jackson ImmunoResearch Laboratories 711-165-152) (antibody) | 100% | – | –
2 | Human IgG-FITC (Bersee BFR550) (antibody) | 100% | 6.9% | 43.6%
3 | Rb pAb to 6× His tag (FITC) (Abcam Ab1206-250) (antibody) | 100% | – | –
4 | Rb pAb to HA tag (PE) (Abcam Ab72564) (antibody) | 100% | – | –
